Results: patent US12102653B2, “Ligand regulated protein-protein interaction system” (ST. ANNA KINDERKREBSFORSCHUNG, priority 2017, dated 2024)

Assays:
RBP4 [1] = biological target: T1, RBP4 (Homo sapiens, UniProt P02753); conditions: ligand-induced conformational changes of human RBP4; cited from earlier work
RBP4 [2] = biological target: T1, RBP4; experiment: Surface plasmon resonance (SPR), RBP4 immobilized on chip; format: binding; parameters: Human His-tagged RBP4 (residues 19-201) in pPICZ-alpha-A vector; made in house; host or cells: Pichia pastoris KM71H (secreted); conditions: for dependence of affinity to RBP4 on the lipocalin-fold ligand A1120: SPR, presence (5 μM) and absence of A1120
Protocol: Surface plasmon resonance (SPR) is used to determine the affinity of the interaction between RBP4 and rcSso7d- or FN3-based lipocalin-fold binding interaction partners and is performed with BiacoreT200 (GE healthcare). The antigen (RBP4) is coated onto a chip and incubated with various concentrations of binder solution in PBS, followed by a dissociation phase in PBS only. All measurements are performed both in the presence and absence of A1120 or other ligands. Finally, kon, koff and Kd values are obtained by global fitting.
Surface plasmon resonance (SPR) was used to determine the affinity of the interaction between RBP4 and rcSso7d- or FN3-based lipocalin-fold binding interaction partners and was performed with BiacoreT200 (GE Healthcare). The antigen (RBP4) was coated onto a CM5 chip (GE Healthcare) and incubated with various concentrations of lipocalin-fold binding interaction partner solution in HBS-EP (GE Healthcare), followed by a dissociation phase in HBS-EP. […] Finally, Kd values (dissociation constants) were obtained by steady-state analysis. […] KD values were calculated by steady-state analysis (right diagram in A and C). One representative experiment out of four independent experiments is shown.

RBP4 [3] = biological target: T1, RBP4; experiment: Isothermal titration calorimetry (ITC) of binder-RBP4 interaction; format: binding; parameters: Human His-tagged RBP4 (residues 19-201) in pPICZ-alpha-A vector; made in house; host or cells: Pichia pastoris KM71H (secreted); conditions: presence (50 μM) and absence of A1120
Protocol: For the thermodynamic characterization of the interaction between RBP4 and rcSso7d- or FN3-based lipocalin-fold binding interaction partners, isothermal titration calorimetry (ITC) is conducted using an automated MicroCal PEAQ-ITC instrument (Malvern Instruments). The samples are centrifuged (17,000 g, 10 min, 20° C.) and filtered (0.1 μm Ultrafree-MC filter, Merck Millipore). RBP4 protein solution is applied to the sample cell and the respective binders are titrated with varying intervals. Different concentrations both for RBP4 and binders are used and in some experiments, binders are applied to the sample cell and RBP4 is titrated. The experiments are performed both in the presence and absence of the ligand A1120 or other ligands. Data analysis is performed with the MicroCal PEAQ-ITC analysis software.
For the thermodynamic characterization of the interaction between RBP4 and rcSso7d- or FN3-based lipocalin-fold binding interaction partners (in this case RBP4 binding interaction partners), isothermal titration calorimetry (ITC) was conducted using the PEAQ Isothermal Titration Calorimeter Automated (Malvern Panalytical). The samples were centrifuged (17000 g, 10 min, 20° C.) and dialysed against the same buffer (PBS). RBP4 protein solution was applied to the sample cell and the respective RBP4 binding interaction partners were titrated with varying intervals. Different concentrations both for RBP4 and RBP4 binding interaction partners were used. […] Data analysis was performed with the MicroCal PEAQ-ITC analysis software and the resulting data were fitted to a one-set-of-sites binding model. […] The signature plots show the thermodynamic parameters of the interaction between RBP4 and RS3. One representative experiment out of four independent experiments is shown. […] The integrated data were fitted to one-set-of-sites binding model to calculate the KD values in FIG. 18. Signature plots show the thermodynamic parameters of the interaction. One representative experiment out of four independent experiments is shown.

[4] = Analytical size exclusion chromatography (SEC) of RBP4 binding interaction partners; format: physicochemical; conditions: PBS with 200 mM NaCl, 25° C.
Protocol: For analytical SEC analysis, a total amount of 25 μg rcSso7d or FN3 mutants in running buffer (PBS with 200 mM NaCl) is filtered through 0.1 μm Ultrafree-MC filter (Merck Millipore), applied to a Superdex 200 10/300 GL column (GE healthcare) connected to an HPLC prominence LC20 system (Shimadzu) and eluted with a flow rate of 0.75 mL/min at 25° C. In addition, multi-angle light scattering (MALS) is used for determining the molecular mass using WYATT Heleos Dawn8+ plus QELS, a refractive index detector RID-10A (Shimadzu) and a diode array detector SPD-M20A (Shimadzu).
For analytical SEC analysis, a total amount of 25 μg of RBP4 binding interaction partners in running buffer (PBS with 200 mM NaCl) was filtered through a 0.1 μm Ultrafree-MC filter (Merck Millipore), applied to a Superdex 200 10/300 GL column (GE healthcare) connected to an HPLC Prominence LC20 system (Shimadzu) and eluted with a flow rate of 0.75 mL/min at 25° C.

[5] = Differential scanning calorimetry (DSC) of RBP4 binding interaction partners; conditions: 80 μM protein, 20-110° C.
Protocol: The stability of RBP4-binding interaction partners is evaluated by determining the melting temperature (Tm) by differential scanning calorimetry (DSC) using MicroCal VP-DSC capillary cell microcalorimeter (MicroCal). Briefly, 30 μM protein solution is exposed to an increasing temperature ranging from 20-110° C. with a heating rate of 1° C./min. Buffer baseline is subtracted and the resulting data are normalized for protein concentration, followed by fitting with a non-two-state thermal unfolding model.
The thermal stability of RBP4 binding interaction partners was evaluated by determining the melting temperature (Tm) by differential scanning calorimetry (DSC) using the PEAQ Differential Scanning Calorimeter Automated (Malvern Panalytical). Briefly, 80 μM protein solution was exposed to an increasing temperature ranging from 20-110° C. with a heating rate of 1° C./min. Buffer baseline was subtracted and the resulting data were normalized for protein concentration, followed by fitting with a non-two-state thermal unfolding model.

Molecule | effect of ligand on the RBP4-TTR interaction (RBP4 [1]) | dependence of affinity to RBP4 on the lipocalin-fold ligand A1120 (RBP4 [2]) | dependence of affinity to RBP4 on the lipocalin-fold ligand A1120 (RBP4 [3]) | folding and oligomeric state (SEC analysis) [4] | thermal stability (DSC analysis) [5] | SPR binding signal to RBP4 (RBP4 [2]; absence of A1120, same RS3 concentrations as used with 5 μM A1120)
CC1=C(/C=C/C(C)=C/C=C/C(C)=C/C(=O)Nc2ccc(O)cc2)C(C)(C)CCC1 [Fenretinide, 15-[(4-hydroxyphenyl)amino]retinal] | dissociation from TTR |  |  |  |  | 
CCNC(=O)/C=C(C)/C=C/C=C(C)/C=C/C1=C(C)CCCC1(C)C [N-Ethylretinamide] | dissociation from TTR |  |  |  |  | 
CC1=C(/C=C/C(C)=C/C=C/C(C)=C/C(=O)O)C(C)(C)CCC1 [all-trans retinoic acid] | dissociation from TTR |  |  |  |  | 
C/C=C(C)/C=C/C=C(C)/C=C/C1=C(C)CCCC1(C)C [axerophthene] | dissociation from TTR |  |  |  |  | 
CC(=O)OC/C=C(C)/C=C/C=C(C)/C=C/C1=C(C)CCCC1(C)C [retinyl acetate] | dissociation from TTR |  |  |  |  | 
RF2: FN3-based lipocalin-fold binding interaction partner binding RBP4 in an A1120-dependent manner (protein) VSDVPRDLEVVAATPTSLLISWYYPNASHAGYYRITYGETGGNSPVQEFTVPFSIRYTIATISGLKPGVDYTITVYAVTDYAYYYRLSEPISINYRTEIDKPSQ |  | strongly depend on the presence of the lipocalin-fold ligand | strongly depend on the presence of the lipocalin-fold ligand | well folded, monomeric proteins |  | 
RS5: rcSso7d-based lipocalin-fold binding interaction partner binding RBP4 in an A1120-dependent manner (protein) ATVKFTYQGEEKQVDISKIKRVARYGQGIYFDYGEGGGAWGYGSVSEEDAPKELLQMLEKQ |  | strongly depend on the presence of the lipocalin-fold ligand | strongly depend on the presence of the lipocalin-fold ligand | well folded, monomeric proteins | stable proteins | 
RS3: rcSso7d-based lipocalin-fold binding interaction partner binding RBP4 in an A1120-dependent manner (protein) ATVKLTYQGEEKQVDISKIKRVARYGQNIYFSYDEGGGAYDYGAVSEKDAPKELLQMLEKQ |  | strongly depend on the presence of the lipocalin-fold ligand | strongly depend on the presence of the lipocalin-fold ligand | well folded, monomeric proteins | stable proteins | almost no signal
